In patent US20240409624A1 (UCB, published 2024):
One block for each binder: values may come before it.

Assays:
[1] = target: T1, 2N4 R tau (human, UniProt P10636 2-758); assay: ELISA, antibody titrated about 3 to 10000 ng/ml on tau isoform coated directly onto the plate, OD 630 nm
T1 construct: also called largest human isoform of tau

[2] = target: T2, 1N3 R tau (human, UniProt P10636-4 1-381); assay: flow cytometry, antibody titrated about 3 to 10000 ng/ml on cells with intracellularly expressed tau isoform, geomean AF647 of transfected cells
T2 construct: One of the six recombinantly expressed tau isoforms
T2 sequence (P10636 other isoform, or with tags, fused parts or gaps limits assumed): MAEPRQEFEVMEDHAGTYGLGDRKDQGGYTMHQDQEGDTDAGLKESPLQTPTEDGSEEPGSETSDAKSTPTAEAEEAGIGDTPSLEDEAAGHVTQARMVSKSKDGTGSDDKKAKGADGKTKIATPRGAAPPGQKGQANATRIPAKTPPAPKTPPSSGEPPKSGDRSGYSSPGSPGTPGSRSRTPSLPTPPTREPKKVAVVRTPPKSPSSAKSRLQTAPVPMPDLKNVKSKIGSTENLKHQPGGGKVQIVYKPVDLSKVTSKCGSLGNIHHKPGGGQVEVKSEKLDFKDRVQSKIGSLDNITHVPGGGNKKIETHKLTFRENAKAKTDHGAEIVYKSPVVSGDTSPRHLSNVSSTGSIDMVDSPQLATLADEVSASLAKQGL

[3] = target: T3, 2N3 R tau (human, UniProt P10636-5 1-410); assay: as above
T3 construct: One of the six recombinantly expressed tau isoforms
T3 sequence (P10636 other isoform, or with tags, fused parts or gaps limits assumed): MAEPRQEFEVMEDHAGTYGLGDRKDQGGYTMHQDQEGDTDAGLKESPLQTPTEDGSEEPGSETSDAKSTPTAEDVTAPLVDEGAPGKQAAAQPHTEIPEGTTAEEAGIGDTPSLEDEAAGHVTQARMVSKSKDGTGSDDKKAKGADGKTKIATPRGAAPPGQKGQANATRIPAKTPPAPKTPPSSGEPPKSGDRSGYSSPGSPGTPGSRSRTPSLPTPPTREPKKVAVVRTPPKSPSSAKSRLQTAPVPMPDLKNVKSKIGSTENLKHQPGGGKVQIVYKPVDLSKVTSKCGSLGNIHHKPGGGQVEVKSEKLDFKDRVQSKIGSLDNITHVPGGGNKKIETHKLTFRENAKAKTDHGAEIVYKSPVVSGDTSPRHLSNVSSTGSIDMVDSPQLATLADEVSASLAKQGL

[4] = target: T4, 0N3 R tau (human, UniProt P10636-2 1-352); assay: as above
T4 construct: Used as recombinant protein (ELISA), overexpressed in cells (flow cytometry, Western blot, immunofluorescence) and native in iPSC derived neurons; also called 3 R tau (iPSC derived neurons express 0N3 R tau)
T4 sequence (P10636 other isoform, or with tags, fused parts or gaps limits assumed): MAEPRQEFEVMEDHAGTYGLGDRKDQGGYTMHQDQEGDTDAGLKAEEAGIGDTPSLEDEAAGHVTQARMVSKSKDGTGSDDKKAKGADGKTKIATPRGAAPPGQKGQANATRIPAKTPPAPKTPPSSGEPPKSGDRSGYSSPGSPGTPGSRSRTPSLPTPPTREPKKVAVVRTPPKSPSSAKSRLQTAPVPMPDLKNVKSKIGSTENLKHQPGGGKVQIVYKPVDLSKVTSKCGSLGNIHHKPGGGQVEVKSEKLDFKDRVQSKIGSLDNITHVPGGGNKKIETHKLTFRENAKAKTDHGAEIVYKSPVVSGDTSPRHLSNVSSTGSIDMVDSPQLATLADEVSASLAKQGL

[5] = target: T5, 1N4 R tau (human, UniProt P10636-7 1-412); assay: as above
T5 construct: One of the six recombinantly expressed tau isoforms
T5 sequence (P10636 other isoform, or with tags, fused parts or gaps limits assumed): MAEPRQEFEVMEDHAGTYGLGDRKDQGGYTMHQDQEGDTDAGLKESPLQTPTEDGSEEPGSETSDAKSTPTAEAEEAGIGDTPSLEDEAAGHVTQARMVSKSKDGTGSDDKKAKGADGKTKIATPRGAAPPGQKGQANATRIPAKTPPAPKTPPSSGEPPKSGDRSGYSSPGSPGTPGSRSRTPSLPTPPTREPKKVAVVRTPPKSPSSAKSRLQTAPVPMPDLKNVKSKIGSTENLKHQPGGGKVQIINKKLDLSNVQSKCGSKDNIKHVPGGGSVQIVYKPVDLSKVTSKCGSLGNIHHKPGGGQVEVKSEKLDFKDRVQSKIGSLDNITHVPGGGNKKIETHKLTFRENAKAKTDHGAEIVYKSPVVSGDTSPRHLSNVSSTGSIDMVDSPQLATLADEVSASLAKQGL

[6] = target: T1, 2N4 R tau; assay: Western blot of lysates of cells overexpressing a single tau isoform, probed with the mouse IgG format
[7] = target: T5, 1N4 R tau; assay: as above
[8] = target: T1, 2N4 R tau; assay: flow cytometry, scFv-Ms-Fc titrated about 3 to 10000 ng/ml on cells transfected with the tau isoform, mean fluorescence of transfected cells
[9] = target: T6, 0N4 R tau (human, UniProt P10636-6 1-383); assay: as above
T6 construct: Used as recombinant protein (ELISA), overexpressed in cells and native in 10+16 MAPT mutant iPSC derived neurons; also called unmutated 0N4 R tau; 4 R tau (10+16 MAPT mutant neurons express 0N4 R tau)
T6 sequence (P10636 other isoform, or with tags, fused parts or gaps limits assumed, form in doubt): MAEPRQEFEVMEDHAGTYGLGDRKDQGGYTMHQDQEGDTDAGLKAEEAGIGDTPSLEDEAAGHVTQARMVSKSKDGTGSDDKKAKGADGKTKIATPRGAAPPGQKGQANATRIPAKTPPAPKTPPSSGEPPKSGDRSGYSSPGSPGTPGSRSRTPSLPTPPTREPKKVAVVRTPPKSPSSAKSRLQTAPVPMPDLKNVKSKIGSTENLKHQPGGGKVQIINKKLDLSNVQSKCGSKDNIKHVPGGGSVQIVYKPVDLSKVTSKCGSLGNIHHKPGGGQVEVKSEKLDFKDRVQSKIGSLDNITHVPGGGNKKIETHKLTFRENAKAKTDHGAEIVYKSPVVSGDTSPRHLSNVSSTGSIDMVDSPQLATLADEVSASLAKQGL

[10] = target: T5, 1N4 R tau; assay: as above
[11] = target: T2, 1N3 R tau; assay: ELISA, scFv-Ms-Fc titrated about 3 to 10000 ng/ml on coated tau isoform, OD 630 nm
[12] = target: T3, 2N3 R tau; assay: as above
[13] = target: T4, 0N3 R tau; assay: as above
[14] = target: T1, 2N4 R tau; assay: ELISA, antibody titrated about 3 to 10000 ng/ml on tau isoform coated directly onto the plate, OD 630 nm; remark: listed apart in the source
[15] = target: T2, 1N3 R tau; assay: as above
[16] = target: T3, 2N3 R tau; assay: as above
[17] = target: T4, 0N3 R tau; assay: as above
[18] = target: T5, 1N4 R tau; assay: as above
[19] = target: T7, 0N4 R tau P301 mutated to alanine (human, UniProt P10636 1-758); assay: flow cytometry on fixed, permeabilised Expi293 cells expressing the mutant, 10 µg/ml VR7082
T7 construct: also called P301A
T7 sequence (P10636 other isoform, or with tags, fused parts or gaps limits assumed, stated change not applied): as the sequence (P10636 other isoform, or with tags, fused parts or gaps limits assumed, form in doubt) above, with P243A counted along it
Protocol: (§1) Upon receipt of the constructs, single constructs were transiently transfected into Expi293 cells (Thermo-Fisher) according to the instructions from the manufacturer. The cells were incubated at 38° C., shaking at 220 RPM, in a humidified 5% CO2 environment. Following a 48 hour incubation, the cells were harvested via centrifugation at 350 G(av) for 10 minutes. The cells were fixed and permeabilized with Invitrogens Fix and Perm kit, according to the instructions from the manufacturers. […] The cells were incubated on ice for 30 minutes before being washed in PBS+1% BSA and resuspended in 50 μl/well.
(§2) The cells were run on an IQue3 and tau containing cells were gated via the alexa-488 fluorescence from HT7 and tau binding assessed via alexa-647 staining. The data was normalised and expressed as a percentage of the binding signal observed for not-mutated tau.

[20] = target: T8, 0N4 R tau G302 mutated to alanine (human, UniProt P10636 1-758); assay: as above
T8 construct: also called G302A
T8 sequence (P10636 other isoform, or with tags, fused parts or gaps limits assumed, stated change not applied): as the sequence (P10636 other isoform, or with tags, fused parts or gaps limits assumed, form in doubt) above, with G244A counted along it
Protocol: as §1, §2

[21] = target: T1, 2N4 R tau; assay: Western blot of lysates of cells overexpressing a single tau isoform, probed with the mouse IgG format; remark: listed apart in the source
[22] = target: T2, 1N3 R tau; assay: as above
[23] = target: T3, 2N3 R tau; assay: as above
[24] = target: T4, 0N3 R tau; assay: as above
[25] = target: T5, 1N4 R tau; assay: as above; remark: listed apart in the source

T1 sequence (P10636 other isoform, or with tags, fused parts or gaps limits assumed): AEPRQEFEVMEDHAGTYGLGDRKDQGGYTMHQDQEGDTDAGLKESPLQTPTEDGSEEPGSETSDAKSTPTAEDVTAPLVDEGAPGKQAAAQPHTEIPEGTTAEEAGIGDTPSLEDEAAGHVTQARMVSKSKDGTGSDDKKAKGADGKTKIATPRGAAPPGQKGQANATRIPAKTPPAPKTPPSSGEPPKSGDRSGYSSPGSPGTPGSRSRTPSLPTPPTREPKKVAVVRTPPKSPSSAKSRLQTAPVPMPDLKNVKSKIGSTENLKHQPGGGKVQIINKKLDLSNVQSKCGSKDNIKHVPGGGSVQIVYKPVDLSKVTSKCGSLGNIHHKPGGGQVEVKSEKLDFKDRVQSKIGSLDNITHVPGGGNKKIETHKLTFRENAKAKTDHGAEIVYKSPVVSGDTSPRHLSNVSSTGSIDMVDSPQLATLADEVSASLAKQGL

B3: VR7082 scFv-Ms-Fc (Fc fusion)
scFv: MAQSVEESGGRLVTPGTPLTLTCTVSGIDLSNYAMIWVRQAPGEGLEYIGIISSTGNTFYATWAKGRFTISKTSTTVDLKITSPTAEDTATYFCARDTNSDSHYGWEAFNIWGPGTLVTVSSGGGGSGGGGSGGGGSGGGGSAVVLTQTPASVEAAVGGTVSINCQASEDIESYLAWYQQKPGQRPKLLIYRASTLASGVSSRFKGSGSGTEYTLTISGVECADAATYYCQEGYSIHVDNVFGGGTEVVVK
notes: also called scFv mouse Fc conversion of VR7082; not shown: mouse Fc
- EC50 (read off the curve) [8]: ~0.9 µg/mL
- EC50 (read off the curve) [9]: ~0.6 µg/mL
- EC50 (read off the curve) [10]: ~0.8 µg/mL
- binding result [11]: no binding (tested: 10000 ng/ml)
- binding result [12]: no binding (tested: 10000 ng/ml)
- binding result [13]: no binding (tested: 10000 ng/ml)

B4: VR7082 rabbit IgG (antibody, V domains shown)
VH: QSVEESGGRLVTPGTPLTLTCTVSGIDLSNYAMIWVRQAPGEGLEYIGIISSTGNTFYATWAKGRFTISKTSTTVDLKITSPTAEDTATYFCARDTNSDSHYGWEAFNIWGPGTLVTVSS
VL: AVVLTQTPASVEAAVGGTVSINCQASEDIESYLAWYQQKPGQRPKLLIYRASTLASGVSSRFKGSGSGTEYTLTISGVECADAATYYCQEGYSIHVDNVFGGGTEVVVK
notes: Cloned and tested as full-length rabbit IgG (kappa light chain); also called clone 3; VR7082-RbIgG
- binding result [14]: binds
- binding result [15]: no binding (tested: 10000 ng/ml)
- binding result [16]: no binding (tested: 10000 ng/ml)
- binding result [17]: no binding (tested: 10000 ng/ml)
- binding result [18]: binds
- binding result [19]: binds
- binding result [20]: binds

B5: VR7082 formatted as Mouse IgG (antibody, V domains shown)
VH: QSVEESGGRLVTPGTPLTLTCTVSGIDLSNYAMIWVRQAPGEGLEYIGIISSTGNTFYATWAKGRFTISKTSTTVDLKITSPTAEDTATYFCARDTNSDSHYGWEAFNIWGPGTLVTVSS
VL: AVVLTQTPASVEAAVGGTVSINCQASEDIESYLAWYQQKPGQRPKLLIYRASTLASGVSSRFKGSGSGTEYTLTISGVECADAATYYCQEGYSIHVDNVFGGGTEVVVK
notes: also called VR7082 mouse chimeric antibody
- binding result [21]: binds
- binding result [22]: no binding
- binding result [23]: no binding
- binding result [24]: no binding
- binding result [25]: binds

Continued, values first:

- binding result [1]: no binding (tested: 10000 ng/ml)
- EC50 (read off the curve) [2]: ~1 µg/mL
- EC50 (read off the curve) [3]: ~0.9 µg/mL
- EC50 (read off the curve) [4]: ~0.7 µg/mL
- binding result [5]: no binding (tested: 10000 ng/ml)
B1: VR7081 rabbit IgG (antibody, V domains shown)
VH: QSLEESGGRLVTPGTPLTLTCTVSGFSLSNYAMIWVRQAPGGGLEWIGTMGTNGRTYYASWAKGRFTISKTSTTMDLSMTSLTAEDTATYFCARDAGITYSTYYFNIWGPGTLVTVSS
VL: AQVLTQTPASVSAAVGGTVSISCQSSPSVLNTNDLSWFQQKPGQPPKVLIYGASTLASGVPSRFKGSGSGTQFTLTISDVQCDDAATYYCAGGYDVNIDIYGFGGGTEVVVK
notes: Cloned and tested as full-length rabbit IgG (kappa light chain); also called clone 14; 3 R-specific antibody

- binding result [6]: no binding
- binding result [7]: no binding
B2: VR7081 formatted as Mouse IgG (antibody, V domains shown)
VH: QSLEESGGRLVTPGTPLTLTCTVSGFSLSNYAMIWVRQAPGGGLEWIGTMGTNGRTYYASWAKGRFTISKTSTTMDLSMTSLTAEDTATYFCARDAGITYSTYYFNIWGPGTLVTVSS
VL: AQVLTQTPASVSAAVGGTVSISCQSSPSVLNTNDLSWFQQKPGQPPKVLIYGASTLASGVPSRFKGSGSGTQFTLTISDVQCDDAATYYCAGGYDVNIDIYGFGGGTEVVVK
notes: also called VR7081 mouse chimeric antibody
